In US20210347914A1 (BANYAN BIOMARKERS, published 2021):

Molecular target: T1, Polyhistidine-tagged recombinant human UCH-L1 expressed from E. coli (human, UniProt P09936 1-223, limits assumed)
T1 construct: also called UCH-L1-His; not shown: polyhistidine tag
Assay: BLI (Octet QKe); His-tagged UCH-L1 on anti-Penta-HIS sensor, antibody in solution
Method: The rates of association (kₒₙ) and dissociation (koff) of the anti-UCH-L1 antibodies were determined by bio-layer interferometry using an Octet QK^e instrument according to the manufacturer's instructions (ForteBio). See Tobias et al., Biomolecular Binding Kinetic Assays in the Octet Platform, Application Note 14, ForteBio, Div. of Pall Life Sciences, 2013. Polyhistidine-tagged recombinant human UCH-L1 expressed from E. coli was used as the antigen. The antigen was bound at a concentration of […] to an anti-Penta-HIS(HIS1K) capture biosensor containing an anti-histidine antibody (ForteBio) for use with the Octet QK^e instrument.

T1 sequence (P09936 whole entry): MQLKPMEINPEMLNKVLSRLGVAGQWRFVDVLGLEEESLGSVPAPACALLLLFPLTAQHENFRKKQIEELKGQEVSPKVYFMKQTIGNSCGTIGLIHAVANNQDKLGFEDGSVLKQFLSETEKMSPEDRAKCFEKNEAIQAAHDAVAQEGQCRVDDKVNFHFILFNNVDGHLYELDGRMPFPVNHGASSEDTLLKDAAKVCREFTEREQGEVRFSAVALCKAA

Kd [nM]	koff [s⁻¹]	kon [M⁻¹ s⁻¹]	Binder
0.0857	1.01e-05	118000	UCH-L1-9 (antibody, V domains shown, also called mouse anti-UCH-L1 antibody UCH-L1-9) VH: EVQLQQSGPELVKPGASVKISCKTSGYTFTEYTMHWVKQSHGKSLDWIGGINPNNGRTSYNQKFKGKATLTVDKSSSTAYMELRSLTSEDSTVYYCARRLGRGFYFDYWGQGTTLTVSS VL: DIVLTQSPASLAVSLGQRATISCRASESVDSYGNNFMHWYQQKPGQPPKLLIYLSSNLESGIPARFSGRGSRTDFTLTINPVEADDVATYYCQQSNGDPYTFGGGTKLEMK
0.043	4.6e-06	107000	UCH-L1-10 (antibody, V domains shown, also called mouse anti-UCH-L1 antibody UCH-L1-10) VH: EVQLQQSGPDLVKPGTSVKISCKTSGYTFTEYTMHWVKQSHGRSLEWIGGFNPNNGRTSYNQKFKGKATLTVDKSSSTAYMELRSLTSEDSAVYYCSRRLYRGFYFDYWGQGTTLTVSS VL: DIVLTQSPASLAVSLGQRATISCRASESVDSYGNNLMHWYQQKPGQSPKLLIYRASNLESGIPGRFSGRGSRTDFSLTINPVEADDVATYYCQQSNGDPYTFGGGTKLEIK
